Measurements published in patent CN108264558A (SHANGHAI NOVOPROTEIN BIOTECHNOLOGY CO LTD, dated 2018).

Key:
Assay in all cases: ELISA, target coated at 1 μg/ml, TsM titrated from 10 μg/ml
CD19-CD3-B7RP-1 TsM_M = target: T1, CD19-CD3-B7RP-1 TsM_M
T1 construct: CHO-S expressed, N-glycosylated monomer; also called 单体形式的抗CD19/抗CD3/B7RP-1三特异性分子

CD19-CD3-B7RP-1 TsM_D = target: T2, CD19-CD3-B7RP-1 TsM_D
T2 construct: Disulfide-linked, glycosylated dimer; also called 二聚体形式的抗CD19/抗CD3/B7RP-1三特异性分子

CD19-CD3-OX40L TsM_D = target: T3, CD19-CD3-OX40L TsM_D
T3 construct: Disulfide-linked, glycosylated dimer; also called 二聚体形式的抗CD19/抗CD3/OX40L三特异性分子

CD19-CD3-CD70 TsM_M = target: T4, CD19-CD3-CD70 TsM_M
T4 construct: CHO-S expressed, N-glycosylated monomer; also called 单体形式的抗CD19/抗CD3/CD70三特异性分子

CD19-CD3-4-1BBL TsM_M = target: T5, CD19-CD3-4-1BBL TsM_M
T5 construct: monomer confirmed by SDS-PAGE and mass spectrometry; also called 单体形式的抗CD19/抗CD3/4-1BBL三特异性分子; 单体形式的TiTE三特异分子

CD19-CD3-4-1BBL TsM_D = target: T6, CD19-CD3-4-1BBL TsM_D
T6 construct: Two chains joined by disulfide bonds of the IgD hinge (dimer by non-reducing SDS-PAGE and mass spectrometry); also called 二聚体形式的抗CD19/抗CD3/4-1BBL三特异性分子; 二聚体形式的TiTE三特异分子

CD19-CD3-OX40L TsM_M = target: T7, CD19-CD3-OX40L TsM_M
T7 construct: CHO-S expressed, N-glycosylated monomer; also called 单体形式的抗CD19/抗CD3/OX40L三特异性分子

CD19-CD3-GITRL TsM_D = target: T8, CD19-CD3-GITRL TsM_D
T8 construct: Disulfide-linked, glycosylated dimer; also called 二聚体形式的抗CD19/抗CD3/GITRL三特异性分子

CD19-CD3-CD70 TsM_D = target: T9, CD19-CD3-CD70 TsM_D
T9 construct: Disulfide-linked, glycosylated dimer; also called 二聚体形式的抗CD19/抗CD3/CD70三特异性分子

CD19-CD3-GITRL TsM_M = target: T10, CD19-CD3-GITRL TsM_M
T10 construct: CHO-S expressed, N-glycosylated monomer; also called 单体形式的抗CD19/抗CD3/GITRL三特异性分子

Measured: binding result

B1: 人类ICOS-hFc融合蛋白 (Fc fusion)
chain: EINGSANYEMFIFHNGGVQILCKYPDIVQQFKMQLLKGGQILCDLTKTKGSGNTVSIKSLKFCHSQLSNNSVSFFLYNLDHSHANYYFCNLSIFDPPPFKVTLTGGYLHIYESQLCCQLK
notes: Bought from 吴江近岸蛋白质科技有限公司; also called 重组蛋白ICOS-hFc; T细胞正共刺激分子ICOS-hFc; not shown: human Fc (hFc)
binds: CD19-CD3-B7RP-1 TsM_M | CD19-CD3-B7RP-1 TsM_D

B2: 人类CD19-hFc融合蛋白 (Fc fusion, human, UniProt P15391 20-291, looked up)
chain: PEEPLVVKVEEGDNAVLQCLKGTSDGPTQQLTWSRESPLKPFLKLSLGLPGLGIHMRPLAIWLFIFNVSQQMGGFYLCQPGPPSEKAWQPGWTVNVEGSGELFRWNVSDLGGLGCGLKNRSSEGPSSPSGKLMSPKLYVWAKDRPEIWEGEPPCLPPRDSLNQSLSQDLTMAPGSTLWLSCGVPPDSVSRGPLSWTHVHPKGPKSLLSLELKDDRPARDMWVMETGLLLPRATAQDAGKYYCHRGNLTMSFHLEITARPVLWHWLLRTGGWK
notes: Bought from 吴江近岸蛋白质科技有限公司; Coated at 1 μg/ml in ELISA; also called 重组抗原CD19-hFc; 抗原CD19-hFc; not shown: human Fc (hFc)
binds: all assays above

B3: 人类GITR-hFc融合蛋白 (Fc fusion)
chain: QRPTGGPGCGPGRLLLGTGTDARCCRVHTTRCCRDYPGEECCSEWDCMCVQPEFHCGDPCCTTCRHHPCPPGQGVQSQGKFSFGFQCIDCASGTFSGGHEGHCKPWTDCTQFGFLTVFPGNKTHNAVCVPGSPPAE
notes: Bought from 吴江近岸蛋白质科技有限公司; also called 重组蛋白GITR-hFc; T细胞正共刺激分子GITR-hFc; not shown: human Fc (hFc)
binds: CD19-CD3-GITRL TsM_D | CD19-CD3-GITRL TsM_M
